This is an account of results in patent US20150344570A1 (published 2015).

Holding throughout (experiment): SPR (Biacore); KD of H240-Kn033/H240-Hl033/L73-k0 divided by KD of the variant
(In general: SPR reads the build-up and loss of mass on a sensor chip optically.)

Test [1] deals with T1, FcgRIIb (human, UniProt P31994 43-217).
T1 construct: extracellular domain; also called FcγRIIb; CD32B; not shown: His tag at the C terminus
T1 sequence (looked up): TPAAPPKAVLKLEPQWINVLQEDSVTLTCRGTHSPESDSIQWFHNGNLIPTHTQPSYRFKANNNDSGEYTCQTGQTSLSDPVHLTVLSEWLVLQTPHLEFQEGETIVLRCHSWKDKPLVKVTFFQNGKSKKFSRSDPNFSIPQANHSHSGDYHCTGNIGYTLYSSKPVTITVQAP
The procedure:
(§1) Binding of the produced variants to FcgRIa, FcgRIIaR, FcgRIIaH, FcgRIIb, FcgRIIIaF, and FcgRIIIaV was measured according to the method of Reference Example 8.
(§2) Analysis of interaction between objective antibody and the FcγR was carried out using Biacore T100 (GE Healthcare), Biacore T200, Biacore A100, and Biacore 4000. HBS-EP+ (GE Healthcare) was used as the running buffer, and the measurement temperature was set to 25° C. Chips produced by immobilizing the antigen peptide by the amine coupling method to a Series S sensor Chip CM5 (GE Healthcare), chips produced by allowing preliminarily biotinylated antigen peptides to interact with and immobilize onto a Series S Sensor Chip SA (certified) (GE Healthcare), chips produced by immobilizing Protein L (ACTIGEN, BioVision) to Series S Sencor Chip CM5 (GE Healthcare), or chips produced by immobilizing Protein A/G (Thermo Scientific) to Series S Sencor Chip CM5 (GE Healthcare) were used. Antibodies of interest were captured onto these chips, and allowed to interact to each FcγR diluted with running buffer. To regenerate and repeatedly use the chip, the antibodies captured onto the chip were washed off by reacting 10 mM glycine-HCl, pH 1.5.

The target of test [2] is T2, FcgRIIaH (human, UniProt P12318 34-217).
T2 construct: extracellular domain; also called FcγRIIa H; FcγRIIa type H; not shown: His tag at the C terminus
T2 sequence (looked up): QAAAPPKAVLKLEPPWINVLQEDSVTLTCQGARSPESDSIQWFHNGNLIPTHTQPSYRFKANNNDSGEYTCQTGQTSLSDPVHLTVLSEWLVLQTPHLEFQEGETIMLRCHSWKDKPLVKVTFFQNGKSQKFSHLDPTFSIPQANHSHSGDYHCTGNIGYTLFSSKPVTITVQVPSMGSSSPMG
The procedure:
as §1, §2

The target in test [3] is T3, FcgRIIIaF (human, UniProt P08637 17-208).
T3 construct: extracellular domain; also called FcγRIIIa F; not shown: His tag at the C terminus
The procedure: as §1, §2

Test [4] has as its target T4, FcgRIIIaV (human, UniProt P08637 17-208).
T4 construct: extracellular domain; also called FcγRIIIa V; not shown: His tag at the C terminus
On the procedure: as §1, §2

Test [5] addresses T5, FcgRIIaR (human, UniProt P12318 34-217).
T5 construct: extracellular domain; also called FcγRIIa R; FcγRIIa type R; not shown: His tag at the C terminus
T5 sequence (looked up): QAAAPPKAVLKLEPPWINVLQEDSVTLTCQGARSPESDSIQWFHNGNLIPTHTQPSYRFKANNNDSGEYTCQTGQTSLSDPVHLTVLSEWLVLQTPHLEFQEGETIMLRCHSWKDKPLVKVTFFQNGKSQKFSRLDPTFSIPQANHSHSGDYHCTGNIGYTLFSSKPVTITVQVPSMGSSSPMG
On the procedure:
as §1, §2

T4 sequence (P08637 17-208 F176V limits assumed): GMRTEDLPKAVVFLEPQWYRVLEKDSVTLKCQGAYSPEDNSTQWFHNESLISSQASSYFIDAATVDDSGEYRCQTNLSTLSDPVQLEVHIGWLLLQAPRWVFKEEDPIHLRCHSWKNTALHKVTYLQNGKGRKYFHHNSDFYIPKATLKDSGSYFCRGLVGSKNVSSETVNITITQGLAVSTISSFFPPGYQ
T3 sequence (P08637 17-208): as the sequence (P08637 17-208 F176V limits assumed) above, with V160F counted along it

B1: H240-Kn205/H240-Hl212/L73-k0 (antibody, human IgG1, kappa)
heavy 1: QDQLVQSGAEVKKPGASVKVSCKASGFNIKDTYIQWVRQAPGQGLEWMGRIDPLRKQTKYREKFEGRVTITADTSTNTAYMELSSLRSEDTAVYYCVRSGREFDYWGQGTLVTVSSASTKGPSVFPLAPSSKSTSGGTAALGCLVKDYFPEPVTVSWNSGALTSGVHTFPAVLQSSGLYSLSSVVTVPSSSLGTQTYICNVNHKPSNTKVDKKVEPKSCDKTHTCPPCPAPEYLGGPSVFLFPPKPKDTLMISRTPEVTCVVVDVSHEDPEVKFNWYVDGVEVHNAKTKPREEQWNCTYRVVSVLTVLHQDWLNGKEYKCKVSNKALPAPIEKTISKAKGQPREPQVCTLPPSRDELTKNQVSLWCLVKGFYPSDIAVEWESNGQPENNYKTTPPVLDSDGSFFLYSKLTVDKSRWQQGNVFSCSVMHEALHNHYTQKSLSLSP
heavy 2: QDQLVQSGAEVKKPGASVKVSCKASGFNIKDTYIQWVRQAPGQGLEWMGRIDPLRKQTKYREKFEGRVTITADTSTNTAYMELSSLRSEDTAVYYCVRSGREFDYWGQGTLVTVSSASTKGPSVFPLAPSSKSTSGGTAALGCLVKDYFPEPVTVSWNSGALTSGVHTFPAVLQSSGLYSLSSVVTVPSSSLGTQTYICNVNHKPSNTKVDKKVEPKSCDKTHTCPPCPAPELLGGPDVFLFPPKPKDTLMISRTPEVTCVVVDVSHEDPEVKFNWYVDGVEVHNAKTKPREEQYNSTYRVVSVLTVLHQDWLNGKEYKCKVSNKALPAPIEVTISKAKGQPREPQVYTLPPSRCELTKNQVSLSCAVKGFYPSDIAVEWESNGQPENNYKTTPPVLDSDGSFFLVSKLTVDKSRWQQGNVFSCSVMHEALHNHYTQKSLSLSP
light: DIQMTQSPSSLSASVGDRVTITCRASQDIHKYIAWYQQKPGQAPRLLIQYTSTLQPGVPSRFSGSGSGTDYTFTISSLQPEDIATYYCLQYEQLRTFGGGTKVEIKRTVAAPSVFIFPPSDEQLKSGTASVVCLLNNFYPREAKVQWKVDNALQSGNSQESVTEQDSKDSTYSLSSTLTLSKADYEKHKVYACEVTHQGLSSPVTKSFNRGEC
notes: L234Y/Y296W/S298C in one H chain, S239D/K334V in the other
Turning to B1, in test [1], the “fold 2b” value is 2.1 fold. The “fold 2aH” value in test [2] was found to be 1.4 fold. In addition, the “fold 3aF” value in test [3] came out at 24.2 fold. In addition, in test [4], the “fold 3aV” value amounted to 11.4 fold. Moreover, in test [5], the “fold 2aR” value amounted to 1.2 fold.

B2: H240-afucosyl_G1d/L73-k0 (antibody, human IgG1, kappa)
heavy: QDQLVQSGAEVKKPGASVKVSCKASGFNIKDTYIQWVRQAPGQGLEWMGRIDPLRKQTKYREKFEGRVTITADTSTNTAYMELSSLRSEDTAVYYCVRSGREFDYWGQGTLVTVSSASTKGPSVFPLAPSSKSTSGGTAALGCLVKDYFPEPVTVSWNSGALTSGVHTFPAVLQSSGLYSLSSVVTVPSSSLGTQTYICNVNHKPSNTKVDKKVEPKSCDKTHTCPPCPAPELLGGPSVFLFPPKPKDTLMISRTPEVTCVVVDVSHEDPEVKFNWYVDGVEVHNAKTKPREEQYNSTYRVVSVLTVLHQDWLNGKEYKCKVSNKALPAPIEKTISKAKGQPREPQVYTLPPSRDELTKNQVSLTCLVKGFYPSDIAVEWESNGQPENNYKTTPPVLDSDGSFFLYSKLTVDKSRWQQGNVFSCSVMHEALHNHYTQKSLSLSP
light: DIQMTQSPSSLSASVGDRVTITCRASQDIHKYIAWYQQKPGQAPRLLIQYTSTLQPGVPSRFSGSGSGTDYTFTISSLQPEDIATYYCLQYEQLRTFGGGTKVEIKRTVAAPSVFIFPPSDEQLKSGTASVVCLLNNFYPREAKVQWKVDNALQSGNSQESVTEQDSKDSTYSLSSTLTLSKADYEKHKVYACEVTHQGLSSPVTKSFNRGEC
modifications: fucose removed from the sugar chain (afucosylated)
notes: Anti-epiregulin IgG1, afucosylated; also called afucosylated antibody
As to B2, in test [1], the “fold 2b” value worked out at 1.3 fold. Besides, in test [2], the “fold 2aH” value was 0.7 fold. The “fold 3aF” value in test [3] came out at 3.7 fold. In addition, in test [4], the “fold 3aV” value amounted to 7 fold. Moreover, the “fold 2aR” value in test [5] stood at 1.5 fold.

B3: H240-Kn229/H240-Hl068/L73-k0 (antibody, human IgG1, kappa)
heavy 1: QDQLVQSGAEVKKPGASVKVSCKASGFNIKDTYIQWVRQAPGQGLEWMGRIDPLRKQTKYREKFEGRVTITADTSTNTAYMELSSLRSEDTAVYYCVRSGREFDYWGQGTLVTVSSASTKGPSVFPLAPSSKSTSGGTAALGCLVKDYFPEPVTVSWNSGALTSGVHTFPAVLQSSGLYSLSSVVTVPSSSLGTQTYICNVNHKPSNTKVDKKVEPKSCDKTHTCPPCPAPEYYWGPIVFLFPPKPKDTLMISRTPEVTCVVVDVSDEDPEVKFNWYVDGVEVHNAKTKPREEQYNATYRVVSVLTVLHQDWLNGKEYKCKVSNKDLPAPIEKTISKAKGQPREPQVCTLPPSRDELTKNQVSLWCLVKGFYPSDIAVEWESNGQPENNYKTTPPVLDSDGSFFLYSKLTVDKSRWQQGNVFSCSVMHEALHNHYTQKSLSLSP
heavy 2: QDQLVQSGAEVKKPGASVKVSCKASGFNIKDTYIQWVRQAPGQGLEWMGRIDPLRKQTKYREKFEGRVTITADTSTNTAYMELSSLRSEDTAVYYCVRSGREFDYWGQGTLVTVSSASTKGPSVFPLAPSSKSTSGGTAALGCLVKDYFPEPVTVSWNSGALTSGVHTFPAVLQSSGLYSLSSVVTVPSSSLGTQTYICNVNHKPSNTKVDKKVEPKSCDKTHTCPPCPAPELLGGPSVFLFPPKPKDTLMISRTPEVTCVVVDVSHEEPEVKFNWYVDGVEVHNAKTKPREEQYNSTYRVVSVLTVLHQDWLNGKEYKCKVSNDALPKPIEETISKAKGQPREPQVYTLPPSRCELTKNQVSLSCAVKGFYPSDIAVEWESNGQPENNYKTTPPVLDSDGSFFLVSKLTVDKSRWQQGNVFSCSVMHEALHNHYTQKSLSLSP
light: DIQMTQSPSSLSASVGDRVTITCRASQDIHKYIAWYQQKPGQAPRLLIQYTSTLQPGVPSRFSGSGSGTDYTFTISSLQPEDIATYYCLQYEQLRTFGGGTKVEIKRTVAAPSVFIFPPSDEQLKSGTASVVCLLNNFYPREAKVQWKVDNALQSGNSQESVTEQDSKDSTYSLSSTLTLSKADYEKHKVYACEVTHQGLSSPVTKSFNRGEC
For B3, the “fold 2b” value in test [1] was determined as 16.5 fold. In addition, the “fold 2aH” value in test [2] came to 13.3 fold. Moreover, the “fold 3aF” value in test [3] came out at 138 fold. Moreover, in test [4], the “fold 3aV” value was 62.3 fold. Moreover, in test [5], the “fold 2aR” value was determined as 46.3 fold.

B4: H240-Kn225/H240-Hl076/L73-k0 (antibody, human IgG1, kappa)
heavy 1: QDQLVQSGAEVKKPGASVKVSCKASGFNIKDTYIQWVRQAPGQGLEWMGRIDPLRKQTKYREKFEGRVTITADTSTNTAYMELSSLRSEDTAVYYCVRSGREFDYWGQGTLVTVSSASTKGPSVFPLAPSSKSTSGGTAALGCLVKDYFPEPVTVSWNSGALTSGVHTFPAVLQSSGLYSLSSVVTVPSSSLGTQTYICNVNHKPSNTKVDKKVEPKSCDKTHTCPPCPAPEYQWGPIVFLFPPKPKDTLMISRTPEVTCVVVDVSDEEPEVKFNWYVDGVEVHNAKTKPREEQYNATYRVVSVLTVLHQDWLNGKEYKCKVSNKALPAPIEKTISKAKGQPREPQVCTLPPSRDELTKNQVSLWCLVKGFYPSDIAVEWESNGQPENNYKTTPPVLDSDGSFFLYSKLTVDKSRWQQGNVFSCSVMHEALHNHYTQKSLSLSP
heavy 2: QDQLVQSGAEVKKPGASVKVSCKASGFNIKDTYIQWVRQAPGQGLEWMGRIDPLRKQTKYREKFEGRVTITADTSTNTAYMELSSLRSEDTAVYYCVRSGREFDYWGQGTLVTVSSASTKGPSVFPLAPSSKSTSGGTAALGCLVKDYFPEPVTVSWNSGALTSGVHTFPAVLQSSGLYSLSSVVTVPSSSLGTQTYICNVNHKPSNTKVDKKVEPKSCDKTHTCPPCPAPELLGGPSVFLFPPKPKDTLMISRTPEVTCVVVDVSHEEPEVKFNWYVDGVEVHNAKTKPREEQYNSTYRVVSVLTVLHQDWLNGKEYKCKVSNDALPMPIEETISKAKGQPREPQVYTLPPSRCELTKNQVSLSCAVKGFYPSDIAVEWESNGQPENNYKTTPPVLDSDGSFFLVSKLTVDKSRWQQGNVFSCSVMHEALHNHYTQKSLSLSP
light: DIQMTQSPSSLSASVGDRVTITCRASQDIHKYIAWYQQKPGQAPRLLIQYTSTLQPGVPSRFSGSGSGTDYTFTISSLQPEDIATYYCLQYEQLRTFGGGTKVEIKRTVAAPSVFIFPPSDEQLKSGTASVVCLLNNFYPREAKVQWKVDNALQSGNSQESVTEQDSKDSTYSLSSTLTLSKADYEKHKVYACEVTHQGLSSPVTKSFNRGEC
Turning to B4, the “fold 2b” value in test [1] worked out at 0.6 fold. In addition, in test [2], the “fold 2aH” value came to 3.1 fold. Further, the “fold 3aF” value in test [3] amounted to 264 fold. Moreover, the “fold 3aV” value in test [4] came to 253 fold. In addition, in test [5], the “fold 2aR” value amounted to 1.5 fold.
